Reference: patent CN113461822A
Changes are numbered by the printed parent chain.

B1: 抗体1 (实施例11; 2D6抗体) (antibody, human IgG1, kappa, V domains shown)
VH: EIQLVQSGSEVVRTGTSVKLSCKASGYRFTSYWMHWVKQRPGQGLEWIGNINPGDGRTNYDENFKNKATLTVDPSSNTAYMQLNSLTSEDSAVYYCTRDGNYGIFDYWGRGTSVTVSS
VL: NIVMTQSPSSLVVSAGEKVTLSCKSSQSLLYSSNQKNYLAWFQQKPGQSPKLLIYWASTRESGVPDRFTGSGSRTDFTLTISSVQAEDMAVYYCHQYIYLWSFGGGSKLEIER
B2: 抗体5 (实施例15) (antibody, human IgG1, kappa, V domains shown)
VH: B1 VH
VL: B1 VL with N1D, V3E, M4L, E61G, S107T, E112K
B3: 抗体4 (实施例14) (antibody, human IgG1, kappa, V domains shown)
VH: EVKLVESGGGLVQPGGSRKLSCAASGFTFSSYWMHWVRQAPEKGLEWVAYISSGGITIYYADTVKGRFTISRDNPENTLFLQMTSLTSEDTAIYYCARRAAYGNYDWYFDVWGAGTTVTVSS
VL: B1 VL
B4: 抗体6 (实施例16) (antibody, human IgG1, kappa, V domains shown)
VH: EVKLVESGGGLVQPGGSRKLSCAASGFTFSSYWMHWVRQAPEKGLEWVANINPGDGRTNYDENFKNRFTISRDNPENTLFLQMTSLTSEDTAIYYCARRAAYGNYDWYFDVWGAGTTVTVSS
VL: B1 VL

The binders below were run against Scl-70抗原 (人DNA拓扑异构酶I的C末端片段的70kD分子量蛋白) (human) (UniProt P11387) (assay: chemiluminescence immunoassay on Scl-70-coated magnetic microspheres, ABEI-anti-human IgG; CHO supernatant undiluted).

原液RLU [RLU] | Binder
1.64e+06 | B1
2e+06 | B2
2.46e+06 | B3
1.08e+06 | B4

Each binder was assayed against Scl-70抗原 (人DNA拓扑异构酶I的C末端片段的70kD分子量蛋白) (human) (UniProt P11387) (assay: chemiluminescence immunoassay on Scl-70-coated magnetic microspheres, ABEI-anti-human IgG; CHO supernatant diluted 10-fold).

稀释10倍RLU [RLU] | Binder
1.01e+06 | B1
1.31e+06 | B2
1.74e+06 | B3
801000 | B4

What follows are binders tested against Scl-70抗原 (人DNA拓扑异构酶I的C末端片段的70kD分子量蛋白) (human) (UniProt P11387) (assay: chemiluminescence immunoassay on Scl-70-coated magnetic microspheres, ABEI-anti-human IgG; CHO supernatant diluted 30-fold).

稀释30倍RLU [RLU] | Binder
355000 | B1
421000 | B2
609000 | B3
329000 | B4

What follows are binders tested against Scl-70抗原 (人DNA拓扑异构酶I的C末端片段的70kD分子量蛋白) (human) (UniProt P11387) (assay: chemiluminescence immunoassay on Scl-70-coated magnetic microspheres, ABEI-anti-human IgG; CHO supernatant diluted 50-fold).

稀释50倍RLU [RLU] | Binder
220000 | B1
239000 | B2
379000 | B3
177000 | B4

Each binder was assayed against Scl-70抗原 (人DNA拓扑异构酶I的C末端片段的70kD分子量蛋白) (human) (UniProt P11387) (assay: chemiluminescence immunoassay on Scl-70-coated magnetic microspheres, ABEI-anti-human IgG; CHO supernatant diluted 100-fold).

稀释100倍RLU [RLU] | Binder
140000 | B1
129000 | B2
171000 | B3
86400 | B4

What follows are binders tested against Scl-70抗原 (人DNA拓扑异构酶I的C末端片段的70kD分子量蛋白) (human) (UniProt P11387) (assay: chemiluminescence immunoassay on Scl-70-coated magnetic microspheres, ABEI-anti-human IgG; CHO supernatant diluted 150-fold).

稀释150倍RLU [RLU] | Binder
73100 | B1
89300 | B2
124000 | B3
57600 | B4

The binders below were run against Scl-70抗原 (人DNA拓扑异构酶I的C末端片段的70kD分子量蛋白) (human) (UniProt P11387) (assay: chemiluminescence immunoassay on Scl-70-coated magnetic microspheres, ABEI-anti-human IgG; CHO supernatant diluted 200-fold).

稀释200倍RLU [RLU] | Binder
55400 | B1
59200 | B2
85700 | B3
43500 | B4
